Experimental data taken from patent US20260232827A1, “ANTIBODY-DRUG CONJUGATES TARGETING NAPI2B AND METHODS OF USE” (Zymeworks BC Inc., priority 2023, published 2026).

Assays:
[1] = target: Construct 1 (chimeric human NaPi2b, swap in NaPi2c in 239-259) (human); assay: flow cytometry, transfected HEK293-6e cells, antibody 5 nM (footnote b)
[2] = target: Construct 7 (human NaPi2b del 317-326) (human) (UniProt O95436); assay: as above
[3] = target: Construct 3 (chimeric human NaPi2b, swap in NaPi2c in 304-321) (human); assay: as above
Sequence of Construct 3 (chimeric human NaPi2b, swap in NaPi2c in 304-321) (human) (O95436 other isoform, or with tags, fused parts or gaps mutant): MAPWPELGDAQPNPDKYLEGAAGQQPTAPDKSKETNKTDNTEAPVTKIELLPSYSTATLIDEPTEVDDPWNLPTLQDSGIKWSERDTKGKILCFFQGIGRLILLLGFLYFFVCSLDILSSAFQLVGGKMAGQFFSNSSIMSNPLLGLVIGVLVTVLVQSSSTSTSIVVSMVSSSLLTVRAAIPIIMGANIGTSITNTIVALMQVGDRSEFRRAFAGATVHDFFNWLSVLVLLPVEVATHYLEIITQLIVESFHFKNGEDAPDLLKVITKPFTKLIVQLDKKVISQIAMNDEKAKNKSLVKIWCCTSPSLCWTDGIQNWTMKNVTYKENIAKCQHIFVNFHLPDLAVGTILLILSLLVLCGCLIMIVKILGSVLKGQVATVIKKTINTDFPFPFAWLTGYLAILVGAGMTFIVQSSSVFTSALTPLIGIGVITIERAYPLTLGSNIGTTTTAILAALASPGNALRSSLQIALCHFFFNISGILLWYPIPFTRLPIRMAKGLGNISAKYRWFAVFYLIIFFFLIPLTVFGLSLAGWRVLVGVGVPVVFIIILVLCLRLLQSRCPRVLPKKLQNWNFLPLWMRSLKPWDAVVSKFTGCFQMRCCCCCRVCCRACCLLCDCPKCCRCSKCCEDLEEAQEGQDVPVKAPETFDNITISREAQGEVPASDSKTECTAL

[4] = target: Construct 4 (chimeric human NaPi2b, swap in NaPi2c in 341-358) (human); assay: as above
Sequence of Construct 4 (chimeric human NaPi2b, swap in NaPi2c in 341-358) (human) (O95436 other isoform, or with tags, fused parts or gaps mutant): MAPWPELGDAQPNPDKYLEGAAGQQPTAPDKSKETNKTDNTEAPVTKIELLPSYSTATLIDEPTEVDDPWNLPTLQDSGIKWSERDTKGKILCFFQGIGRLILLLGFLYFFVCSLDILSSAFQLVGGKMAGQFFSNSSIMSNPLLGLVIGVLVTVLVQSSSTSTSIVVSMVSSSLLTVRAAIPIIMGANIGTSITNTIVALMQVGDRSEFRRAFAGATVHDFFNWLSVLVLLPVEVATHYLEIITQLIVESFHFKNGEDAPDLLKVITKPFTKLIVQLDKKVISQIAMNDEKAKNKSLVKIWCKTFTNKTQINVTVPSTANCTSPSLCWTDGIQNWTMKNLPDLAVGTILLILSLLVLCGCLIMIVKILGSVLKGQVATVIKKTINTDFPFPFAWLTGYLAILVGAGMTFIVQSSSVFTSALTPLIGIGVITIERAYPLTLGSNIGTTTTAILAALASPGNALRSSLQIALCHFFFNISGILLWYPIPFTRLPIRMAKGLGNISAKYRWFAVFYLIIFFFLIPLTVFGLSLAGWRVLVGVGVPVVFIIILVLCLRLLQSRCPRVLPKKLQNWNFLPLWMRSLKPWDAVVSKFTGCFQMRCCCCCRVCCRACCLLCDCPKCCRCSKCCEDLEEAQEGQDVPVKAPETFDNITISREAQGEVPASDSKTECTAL

[5] = target: Construct 6 (human NaPi2b del 317-333) (human) (UniProt O95436); assay: as above
Sequence of Construct 6 (human NaPi2b del 317-333) (human) (O95436 other isoform, or with tags, fused parts or gaps): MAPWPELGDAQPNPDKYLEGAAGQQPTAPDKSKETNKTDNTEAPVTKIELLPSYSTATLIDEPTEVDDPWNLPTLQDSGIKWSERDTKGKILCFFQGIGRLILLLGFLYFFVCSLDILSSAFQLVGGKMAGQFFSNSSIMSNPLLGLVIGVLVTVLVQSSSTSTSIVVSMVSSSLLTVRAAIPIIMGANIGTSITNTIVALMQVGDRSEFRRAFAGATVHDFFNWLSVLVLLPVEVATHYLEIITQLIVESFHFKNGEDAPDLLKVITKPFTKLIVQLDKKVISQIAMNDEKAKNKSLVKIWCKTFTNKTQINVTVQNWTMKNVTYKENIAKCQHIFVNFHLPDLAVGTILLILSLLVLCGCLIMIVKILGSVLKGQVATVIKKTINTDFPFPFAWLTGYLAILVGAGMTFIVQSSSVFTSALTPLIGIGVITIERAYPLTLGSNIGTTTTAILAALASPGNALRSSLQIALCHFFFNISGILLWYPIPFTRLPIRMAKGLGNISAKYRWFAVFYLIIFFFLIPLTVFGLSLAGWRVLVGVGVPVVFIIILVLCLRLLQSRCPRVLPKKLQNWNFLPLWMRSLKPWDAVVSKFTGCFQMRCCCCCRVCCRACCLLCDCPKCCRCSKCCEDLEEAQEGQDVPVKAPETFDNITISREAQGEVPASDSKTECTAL

[6] = target: Construct 5 (chimeric human NaPi2b, swap in NaPi2a in 304-348) (human); assay: as above
[7] = target: Full length human NaPi2b (sodium-dependent phosphate transporter 2B, SLC34A2) (human) (UniProt O95436); assay: as above
Sequence of Full length human NaPi2b (sodium-dependent phosphate transporter 2B, SLC34A2) (human) (O95436 whole entry): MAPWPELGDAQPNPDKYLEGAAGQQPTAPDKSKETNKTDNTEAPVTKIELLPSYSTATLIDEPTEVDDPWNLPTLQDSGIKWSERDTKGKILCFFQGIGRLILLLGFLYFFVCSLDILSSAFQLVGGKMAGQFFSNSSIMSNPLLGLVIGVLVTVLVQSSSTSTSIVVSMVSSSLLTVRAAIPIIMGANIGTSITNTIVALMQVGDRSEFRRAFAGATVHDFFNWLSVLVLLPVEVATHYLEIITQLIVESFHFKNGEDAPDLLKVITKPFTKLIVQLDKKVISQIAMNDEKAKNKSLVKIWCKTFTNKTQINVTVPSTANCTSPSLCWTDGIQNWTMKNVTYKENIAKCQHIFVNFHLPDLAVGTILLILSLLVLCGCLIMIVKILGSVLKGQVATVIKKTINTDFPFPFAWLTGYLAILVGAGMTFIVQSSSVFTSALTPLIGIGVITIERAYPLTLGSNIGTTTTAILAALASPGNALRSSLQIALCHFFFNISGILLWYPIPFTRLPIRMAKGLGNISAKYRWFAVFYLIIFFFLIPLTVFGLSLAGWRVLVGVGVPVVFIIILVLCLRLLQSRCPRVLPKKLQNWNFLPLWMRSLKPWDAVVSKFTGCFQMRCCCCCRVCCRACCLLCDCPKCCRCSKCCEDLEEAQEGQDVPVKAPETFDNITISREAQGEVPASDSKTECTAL

[8] = target: Construct 2 (chimeric human NaPi2b, swap in NaPi2c in 280-301) (human); assay: as above
Sequence of Construct 2 (chimeric human NaPi2b, swap in NaPi2c in 280-301) (human) (O95436 other isoform, or with tags, fused parts or gaps mutant): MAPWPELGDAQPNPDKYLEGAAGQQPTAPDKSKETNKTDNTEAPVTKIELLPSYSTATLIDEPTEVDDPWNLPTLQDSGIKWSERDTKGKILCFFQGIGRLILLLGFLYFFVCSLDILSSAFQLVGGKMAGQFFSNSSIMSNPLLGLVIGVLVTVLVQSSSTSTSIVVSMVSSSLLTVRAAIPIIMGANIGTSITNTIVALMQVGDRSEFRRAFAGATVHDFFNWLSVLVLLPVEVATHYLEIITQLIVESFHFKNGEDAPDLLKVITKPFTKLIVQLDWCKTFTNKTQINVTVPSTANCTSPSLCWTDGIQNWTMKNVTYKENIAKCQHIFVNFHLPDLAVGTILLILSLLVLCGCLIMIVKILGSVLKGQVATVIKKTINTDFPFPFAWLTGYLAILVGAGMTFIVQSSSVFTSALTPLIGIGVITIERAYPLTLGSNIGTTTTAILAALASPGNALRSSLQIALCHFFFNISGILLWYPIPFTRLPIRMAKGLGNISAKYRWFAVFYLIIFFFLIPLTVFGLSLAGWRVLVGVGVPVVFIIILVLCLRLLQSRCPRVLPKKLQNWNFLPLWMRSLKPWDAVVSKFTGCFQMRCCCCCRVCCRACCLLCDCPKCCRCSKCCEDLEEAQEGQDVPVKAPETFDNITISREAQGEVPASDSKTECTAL

[9] = target: Construct 1 (chimeric human NaPi2b, swap in NaPi2c in 239-259) (human); assay: flow cytometry, transfected HEK293-6e cells, antibody 50 nM (footnote b)
[10] = target: Construct 7 (human NaPi2b del 317-326) (human) (UniProt O95436); assay: as above
[11] = target: Construct 3 (chimeric human NaPi2b, swap in NaPi2c in 304-321) (human); assay: as above
[12] = target: Construct 4 (chimeric human NaPi2b, swap in NaPi2c in 341-358) (human); assay: as above
[13] = target: Construct 6 (human NaPi2b del 317-333) (human) (UniProt O95436); assay: as above
[14] = target: Construct 5 (chimeric human NaPi2b, swap in NaPi2a in 304-348) (human); assay: as above
[15] = target: Full length human NaPi2b (sodium-dependent phosphate transporter 2B, SLC34A2) (human) (UniProt O95436); assay: as above
[16] = target: Construct 2 (chimeric human NaPi2b, swap in NaPi2c in 280-301) (human); assay: as above
[17] = target: Construct 1 (chimeric human NaPi2b, swap in NaPi2c in 239-259) (human); assay: flow cytometry, transfected HEK293-6e cells, antibody 0.5 nM (footnote b)
[18] = target: Construct 7 (human NaPi2b del 317-326) (human) (UniProt O95436); assay: as above
[19] = target: Construct 3 (chimeric human NaPi2b, swap in NaPi2c in 304-321) (human); assay: as above
[20] = target: Construct 4 (chimeric human NaPi2b, swap in NaPi2c in 341-358) (human); assay: as above
[21] = target: Construct 6 (human NaPi2b del 317-333) (human) (UniProt O95436); assay: as above
[22] = target: Construct 5 (chimeric human NaPi2b, swap in NaPi2a in 304-348) (human); assay: as above
[23] = target: Full length human NaPi2b (sodium-dependent phosphate transporter 2B, SLC34A2) (human) (UniProt O95436); assay: as above
[24] = target: Construct 2 (chimeric human NaPi2b, swap in NaPi2c in 280-301) (human); assay: as above
[25] = target: human sodium-dependent phosphate transporter 2B (NaPi2b) (human) (UniProt O95436); assay: competition flow cytometry, human NaPi2b on HEK293-6e; row antibody unlabeled 100 ug/mL; competitor: labeled v18993 (lifastuzumab) 1 ug/mL
Sequence of human sodium-dependent phosphate transporter 2B (NaPi2b) (human) (O95436 whole entry): as the sequence (O95436 whole entry) above

[26] = target: human sodium-dependent phosphate transporter 2B (NaPi2b) (human) (UniProt O95436); assay: competition flow cytometry, human NaPi2b on HEK293-6e; row antibody unlabeled 100 ug/mL; competitor: labeled v18992 (MX35) 1 ug/mL
[27] = target: human sodium-dependent phosphate transporter 2B (NaPi2b) (human) (UniProt O95436); assay: competition flow cytometry, human NaPi2b on HEK293-6e; row antibody unlabeled 100 ug/mL; competitor: labeled v23855 1 ug/mL
[28] = target: human sodium-dependent phosphate transporter 2B (NaPi2b) (human) (UniProt O95436); assay: competition flow cytometry, human NaPi2b on HEK293-6e; row antibody unlabeled 100 ug/mL; competitor: labeled v16955 (negative control) 1 ug/mL
[29] = target: Fcγ receptor (FcγR) on the surface of immune effector cells; assay: cell-based or functional assay

Sequence of Construct 7 (human NaPi2b del 317-326) (human) (O95436 other isoform, or with tags, fused parts or gaps): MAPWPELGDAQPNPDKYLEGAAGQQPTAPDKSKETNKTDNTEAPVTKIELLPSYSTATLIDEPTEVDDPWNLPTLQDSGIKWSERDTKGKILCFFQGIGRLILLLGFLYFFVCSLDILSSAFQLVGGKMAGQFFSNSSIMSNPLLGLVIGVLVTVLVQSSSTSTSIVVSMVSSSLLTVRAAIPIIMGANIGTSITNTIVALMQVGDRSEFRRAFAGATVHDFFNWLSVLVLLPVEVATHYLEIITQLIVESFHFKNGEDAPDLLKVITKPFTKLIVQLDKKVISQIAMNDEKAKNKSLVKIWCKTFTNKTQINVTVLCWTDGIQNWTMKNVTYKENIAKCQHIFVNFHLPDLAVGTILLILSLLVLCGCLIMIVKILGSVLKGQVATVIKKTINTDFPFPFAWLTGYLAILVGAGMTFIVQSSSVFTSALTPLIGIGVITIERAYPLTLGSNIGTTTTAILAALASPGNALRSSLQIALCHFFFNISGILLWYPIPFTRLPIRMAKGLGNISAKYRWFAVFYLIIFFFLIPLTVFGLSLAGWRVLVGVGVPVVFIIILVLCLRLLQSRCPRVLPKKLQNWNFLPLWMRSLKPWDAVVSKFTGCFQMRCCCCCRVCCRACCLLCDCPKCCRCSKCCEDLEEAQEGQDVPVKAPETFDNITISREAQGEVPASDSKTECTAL
Sequence of Construct 1 (chimeric human NaPi2b, swap in NaPi2c in 239-259) (human) (O95436 other isoform, or with tags, fused parts or gaps mutant): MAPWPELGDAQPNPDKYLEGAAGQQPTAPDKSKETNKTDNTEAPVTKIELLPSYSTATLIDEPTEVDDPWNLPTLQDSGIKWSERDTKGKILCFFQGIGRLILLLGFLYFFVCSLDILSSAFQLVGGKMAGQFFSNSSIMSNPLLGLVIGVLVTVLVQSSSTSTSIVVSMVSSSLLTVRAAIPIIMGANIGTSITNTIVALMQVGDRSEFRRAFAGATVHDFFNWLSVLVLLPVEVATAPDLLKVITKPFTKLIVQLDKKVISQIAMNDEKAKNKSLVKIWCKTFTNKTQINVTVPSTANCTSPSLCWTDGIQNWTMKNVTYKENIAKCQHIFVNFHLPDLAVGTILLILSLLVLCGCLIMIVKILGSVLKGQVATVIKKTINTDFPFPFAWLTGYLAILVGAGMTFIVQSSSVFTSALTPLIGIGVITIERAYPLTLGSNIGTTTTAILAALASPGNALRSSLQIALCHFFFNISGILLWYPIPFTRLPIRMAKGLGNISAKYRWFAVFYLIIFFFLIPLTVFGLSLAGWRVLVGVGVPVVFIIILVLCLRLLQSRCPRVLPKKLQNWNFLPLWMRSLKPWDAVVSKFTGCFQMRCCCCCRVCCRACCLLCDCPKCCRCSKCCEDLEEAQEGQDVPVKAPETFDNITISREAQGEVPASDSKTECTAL

“reference anti-NaPi2a antibody (polyclonal rabbit anti-human SLC34A1; Atlas Biotechnologies Inc; Cat. No. HPA051255)” was tested. Which Background-Subtracted AF647 Mean Fluorescence Intensity [1] did it give?
Its Background-Subtracted AF647 Mean Fluorescence Intensity is 859 MFI.

And the Background-Subtracted AF647 Mean Fluorescence Intensity [2]?
The Background-Subtracted AF647 Mean Fluorescence Intensity was 1 MFI.

What about the Background-Subtracted AF647 Mean Fluorescence Intensity [3] of the same substance?
The Background-Subtracted AF647 Mean Fluorescence Intensity was 411 MFI.

What about the Background-Subtracted AF647 Mean Fluorescence Intensity [4] of the same substance?
The Background-Subtracted AF647 Mean Fluorescence Intensity was 250 MFI.

What about the Background-Subtracted AF647 Mean Fluorescence Intensity [5] of the same substance?
The Background-Subtracted AF647 Mean Fluorescence Intensity was 283 MFI.

What about the Background-Subtracted AF647 Mean Fluorescence Intensity [6] of the same substance?
The Background-Subtracted AF647 Mean Fluorescence Intensity was 546 MFI.

What about the Background-Subtracted AF647 Mean Fluorescence Intensity [7] of the same substance?
Its Background-Subtracted AF647 Mean Fluorescence Intensity is 97 MFI.

And the Background-Subtracted AF647 Mean Fluorescence Intensity [8]?
Its Background-Subtracted AF647 Mean Fluorescence Intensity is 222 MFI.

And the Background-Subtracted AF647 Mean Fluorescence Intensity [9]?
Its Background-Subtracted AF647 Mean Fluorescence Intensity is 616 MFI.

And the Background-Subtracted AF647 Mean Fluorescence Intensity [10]?
Its Background-Subtracted AF647 Mean Fluorescence Intensity is 123 MFI.

And the Background-Subtracted AF647 Mean Fluorescence Intensity [11]?
The Background-Subtracted AF647 Mean Fluorescence Intensity was 375 MFI.

And the Background-Subtracted AF647 Mean Fluorescence Intensity [12]?
The Background-Subtracted AF647 Mean Fluorescence Intensity was 511 MFI.

And the Background-Subtracted AF647 Mean Fluorescence Intensity [13]?
The Background-Subtracted AF647 Mean Fluorescence Intensity was 291 MFI.

And the Background-Subtracted AF647 Mean Fluorescence Intensity [14]?
The Background-Subtracted AF647 Mean Fluorescence Intensity was 339 MFI.

What about the Background-Subtracted AF647 Mean Fluorescence Intensity [15] of the same substance?
The Background-Subtracted AF647 Mean Fluorescence Intensity was 107 MFI.

What about the Background-Subtracted AF647 Mean Fluorescence Intensity [16] of the same substance?
Its Background-Subtracted AF647 Mean Fluorescence Intensity is 230 MFI.

What about the Background-Subtracted AF647 Mean Fluorescence Intensity [17] of the same substance?
The Background-Subtracted AF647 Mean Fluorescence Intensity was 99 MFI.

And the Background-Subtracted AF647 Mean Fluorescence Intensity [18]?
Its Background-Subtracted AF647 Mean Fluorescence Intensity is 369 MFI.

And the Background-Subtracted AF647 Mean Fluorescence Intensity [19]?
The Background-Subtracted AF647 Mean Fluorescence Intensity was 40 MFI.

What about the Background-Subtracted AF647 Mean Fluorescence Intensity [20] of the same substance?
The Background-Subtracted AF647 Mean Fluorescence Intensity was 146 MFI.

What about the Background-Subtracted AF647 Mean Fluorescence Intensity [21] of the same substance?
The Background-Subtracted AF647 Mean Fluorescence Intensity was 666 MFI.

And the Background-Subtracted AF647 Mean Fluorescence Intensity [22]?
The Background-Subtracted AF647 Mean Fluorescence Intensity was 119 MFI.

And the Background-Subtracted AF647 Mean Fluorescence Intensity [23]?
Its Background-Subtracted AF647 Mean Fluorescence Intensity is 596 MFI.

And the Background-Subtracted AF647 Mean Fluorescence Intensity [24]?
The Background-Subtracted AF647 Mean Fluorescence Intensity was 70 MFI.

Which % Inhibition vs. irrelevant mAb [25] does the source give for “v16955 (Palivizumab, anti-RSV, negative control of Example 9) (antibody)” here?
The % Inhibition vs. irrelevant mAb was 0%.

And the % Inhibition vs. irrelevant mAb [26]?
Its % Inhibition vs. irrelevant mAb is 0%.

And the % Inhibition vs. irrelevant mAb [27]?
Its % Inhibition vs. irrelevant mAb is 0%.

And the % Inhibition vs. irrelevant mAb [28]?
The % Inhibition vs. irrelevant mAb was 0%.

With v18992 (Fc wild-type MX-35) (antibody) as the substance, how does the ADCC EC50 (nM) (25 PBMCs:1 IGROV-1, 4-hour incubation) [29] read?
Its ADCC EC50 (nM) (25 PBMCs:1 IGROV-1, 4-hour incubation) is 0.035 nM.

What about the ADCP EC50 (nM) (2 Macs:1 IGROV-1, 2-hour incubation) [29] of the same substance?
Its ADCP EC50 (nM) (2 Macs:1 IGROV-1, 2-hour incubation) is 0.043 nM.

Which results are given for “Lifastuzumab (v18993, wild-type Fc) (antibody)”?
% ADCC at 0.0192 nM (25 PBMCs:1 IGROV-1, 4 h) [29]: 5.96%; % ADCC at 0.48 nM (25 PBMCs:1 IGROV-1, 4 h) [29]: 14%; % ADCC at 12 nM (25 PBMCs:1 IGROV-1, 4 h) [29]: 14.4%
